From patent US20220316002

Biological target: thiolated streptavidin (ProteinMods) (UniProt P22629)
UniProt P22629, sequence (P22629 whole entry, looked up): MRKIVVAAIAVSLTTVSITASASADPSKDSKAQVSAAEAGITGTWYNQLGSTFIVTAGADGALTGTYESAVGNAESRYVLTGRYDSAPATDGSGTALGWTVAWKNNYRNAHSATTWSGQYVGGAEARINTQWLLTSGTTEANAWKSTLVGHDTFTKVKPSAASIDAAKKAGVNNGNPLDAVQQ

## Gen II Φ29 DNA polymerase (D12A/D66A, biotinylated Avitag at the N terminus and second Avitag between E279 and D280)
  highest peak of the single-molecule conductance distribution (STM, 4.5 nm gap): The 3 nS peak observed in FIG. 14B is now absent
